B1: micF DNA2-Cy5-biotin (bioDNA) (dsDNA)
DNA 1: GTATTTGACAGCACTGAATGTCAAAACAAAACCTTCACTCGCAACTATAATGGGAGCTGTCACGGATGCAACTTTATTTATTACC
DNA 2: GGTAATAAATAAAGTTGCATCCGTGACAGCTCCCATTATAGTTGCGAGTGAAGGTTTTGTTTTGACATTCAGTGCTGTCAAATAC
modifications: internal Cy5-dT in template strand
B2: micF DNA2-Cy5 (dsDNA)
DNA 1: B1 DNA 1
DNA 2: B1 DNA 2
modifications: internal Cy5-dT in template strand

Tests used:
[1] = biological target: Rob Cys281-Cy3B;RNA polymerase sigma70 holoenzyme (Escherichia coli;Escherichia coli, UniProt P0ACI0;P0A7Z4;P0A8V2;P0A8T7;P0A800;P00579 1-289;1-329;1-1342;1-1407;1-91;1-613, C147S;C247S|); assay: single-molecule FRET
[2] = biological target: Rob Cys281-Cy3B;biotinylated RNAP holoenzyme (Escherichia coli;Escherichia coli?, UniProt P0ACI0;P0A7Z4;P0A8V2;P0A8T7;P0A800;P00579 1-289;1-329;1-1342;1-1407;1-91;1-613, C147S;C247S|); assay: single-molecule FRET

Row | Binder | binding result [1] | binding result [2]
1 | B1 | binds | –
2 | B2 | – | binds

From publication PMC9178005
